Results as given in patent US20230121775A1 (AMUNIX PHARMACEUTICALS, published 2023).

Target: Biotinylated CD3(Eµ antigen (Creative Biomart) (UniProt P07766 23-126, biotinylated (site not stated)))
Assay: BLI (ForteBio BLItz), biotinylated CD3 antigen on streptavidin biosensor, scFv in solution

Biotinylated CD3(Eµ antigen (Creative Biomart), sequence (P07766 23-126): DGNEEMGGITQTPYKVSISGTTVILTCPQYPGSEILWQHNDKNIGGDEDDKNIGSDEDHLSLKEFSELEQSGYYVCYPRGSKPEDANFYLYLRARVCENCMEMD

Row | Binder | Kd
1 | CD3.9 scFv (parental anti-CD3 scFv) (scFv, VL-linker-VH scFv; also called hCD3.9; aCD3.9) scFv: ELVVTQEPSLTVSPGGTVTLTCRSSTGAVTTSNYANWVQQKPGQAPRGLIGGTNKRAPGTPARFSGSLLGGKAALTLSGVQPEDEAEYYCALWYSNLWVFGGGTKLTVLGATPPETGAETESPGETTGGSAESEPPGEGEVQLLESGGGLVQPGGSLKLSCAASGFTFNTYAMNWVRQAPGKGLEWVARIRSKYNNYATYYADSVKDRFTISRDDSKNTAYLQMNNLKTEDTAVYYCVRHGNFGNSYVSWFAYWGQGTLVTVSS | 75 nM
2 | CD3.23 scFv (scFv, VL-linker-VH scFv; also called hCD3.23; aCD3.23) scFv: ELVVTQEPSLTVSPGGTVTLTCRSSNGAVTSSNYANWVQQKPGQAPRGLIGGTNKRAPGTPARFSGSLLGGKAALTLSGVQPEDEAVYYCALWYPNLWVFGGGTKLTVLGATPPETGAETESPGETTGGSAESEPPGEGEVQLLESGGGIVQPGGSLKLSCAASGFTFNTYAMNWVRQAPGKGLEWVARIRSKYNNYATYYADSVKDRFTISRDDSKNTVYLQMNNLKTEDTAVYYCVRHENFGNSYVSWFAHWGQGTLVTVSS | 175 nM
3 | CD3.24 scFv (scFv, VL-linker-VH scFv) scFv: ELVVTQEPSLTVSPGGTVTLTCRSSNGEVTTSNYANWVQQKPGQAPRGLIGGTIKRAPGTPARFSGSLLGGKAALTLSGVQPEDEAVYYCALWYPNLWVFGGGTKLTVLGATPPETGAETESPGETTGGSAESEPPGEGEVQLLESGGGIVQPGGSLKLSCAASGFTFNTYAMNWVRQAPGKGLEWVARIRSKYNNYATYYADSVKDRFTISRDDSKNTVYLQMNNLKTEDTAVYYCVRHENFGNSYVSWFAHWGQGTLVTVSS | 296 nM
4 | CD3.25 scFv (scFv, VL-linker-VH scFv) scFv: ELVVTQEPSHTVSPGGTVTLTCRSSTGAVTSSNYANWVQQKPGQAPRGLIGGTIKRAPGTPARFSGSLLGGKAALTLSGVQPEDEAEYYCALWYPNLWVFGGGTKLTVLGATPPETGAETESPGETTGGSAESEPPGEGEVQLLESGGGIVQPGGSLKLSCAASGFTFNTYAMNWVRQAPGKGLEWVARIRSKYNNYATYYADSVKDRFTISRDDSKNTVYLQMNNLKTEDTAVYYCVRHENFGNSYVSWFAHWGQGTLVTVSS | 215 nM
5 | CD3.26 scFv (scFv, VL-linker-VH scFv) scFv: ELVVTQEPSHTVSPGGTVTLTCRSSTGEVTTSNYANWVQQKPGQAPRGLIGGTIKRAPGTPARFSGSLLGGKAALTLSGVQPEDEAEYYCALWYPNLWVFGGGTKLTVLGATPPETGAETESPGETTGGSAESEPPGEGEVQLLESGGGIVQPGGSLKLSCAASGFTFNTYAMNWVRQAPGKGLEWVARIRSKYNNYATYYADSVKDRFTISRDDSKNTVYLQMNNLKTEDTAVYYCVRHENFGNSYVSWFAHWGQGTLVTVSS | 221 nM
